# Laboratory results from patent publication US7419667B2, “Drug for cancer therapy” (Morinaga Milk Industry Co. Ltd., priority 2004, dated 2008).
# Tested on: human Burkitt lymphoma Raji cells
# Assay: Test Example 1: cytotoxic action of complement and antibody drug (rituximab) with sample added, PI method
# Type: cell-based
# Conditions: for Cytotoxic activity (%): 100 μl/well of 1000 μg/ml sample, 1 hour, PI
# Procedure: Test Sample 1 was prepared with the lactoferrin hydrolysate mixture prepared in Preparation Example 1, of which concentration was adjusted to 1000 μg/ml in RPMI 1640 medium (Sigma, catalog number: R8758) containing 7.5% fetal bovine serum (Gibco, catalog number: 10099-141) and 1% penicillin-streptomycin (Gibco, catalog number: 15070-063) [henceforth this solution is referred to as “dilution solution”]. Furthermore, Control Sample 1 was prepared by diluting lactoferrin to a concentration of 1000 μg/ml with the dilution solution.
# As target cells for measurement of cytotoxic action of complement and antibody drug, human Burkitt lymphoma Raji cells (ATCC CCL-86, obtained from American Type Culture Collection (10801 University Boulevard, Manassas, Va. 20110-2209, USA)) were used, and the cells were suspended at a density of 2×10^6 cells/ml by using the dilution solution to prepare a Raji cell suspension. As an antibody drug solution, rituximab (Zenyaku Kogyo, sold by Nippon Roche) that recognizes the CD20 antigen was used, and it was prepared at a concentration of 200 μg/ml using the dilution solution. As a complement solution, Human serum AB (Cosmobio, catalog number: 832000027) was used. These antibody drug solution and complement solution were also used for Test Examples 2 to 5 described below.
# Viability determination of the cells was performed by the method using propidium iodide (PI, Dojindo, catalog number: P378) [Cytometry, Vol. 8, No. 4, pp. 421-426, 1987] or the method using Calcein-AM (Dojindo, catalog number: 341-07901) [Apoptosis, Vol. 3, No. 3, pp. 195-202, 1998].
# The Raji cell suspension was added to each well of a 24-well culture plate (NUNC, catalog number: 143982) in a volume of 100 μl each (2×10^5 cells each). The 24 wells were divided into four groups, to wells (6 wells) of one group among them, 50 μl/well of the antibody drug solution and 250 μl/well of dilution solution were added as “Addition of antibody drug”. Further, to wells (6 wells) of another group, 100 μl of the complement solution and 200 μl of the dilution solution were added as “Addition of complement”. Furthermore, to wells (6 wells) of another group, 50 μl of the antibody drug solution, 100 μl of the complement solution and 150 μl of the dilution solution were added as “Addition of antibody drug+complement”. To wells (6 wells) of the remaining one group, 300 μl of the dilution solution was added as “No addition”.
# For the aforementioned four groups, 100 μl/well of Test Sample 1 (4 groups×2 wells), Control Sample 1 (4 groups×2 wells) or the dilution solution (4 groups×2 wells) mentioned above was added as “Test Sample Group 1”, “Control Sample Group 1” and “Negative Sample Group 1”, respectively.
# By using the 24-well plate prepared as described above, the cells were cultured under the conditions of 37° C. and 5% carbon dioxide (CO2) for 1 hour using an incubator (Napco, catalog number: 5300). Then, the cells of each sample group were collected, and the rate of dead cells in each was examined by the aforementioned method using PI. Cytotoxic activity was calculated based on a case where all the target cells were killed, which was taken as 100%.
molecule,measurement,setting,value
"Control Sample Group 1: Undecomposed commercially available bovine lactoferrin (Morinaga Milk Industry Co., Ltd.) used as control (protein, listed as Bos taurus, sig_peptide (1)...(19) Lactoferrin) MKLFVPALLSLGALGLCLAAPRKNVRWCTISQPEWFKCRRWQWRMKKLGAPSITCVRRAFALECIRAIAEKKADAVTLDGGMVFEAGRDPYKLRPVAAEIYGTKESPQTHYYAVAVVKKGSNFQLDQLQGRKSCHTGLGRSAGWIIPMGILRPYLSWTESLEPLQGAVAKFFSASCVPCIDRQAYPNLCQLCKGEGENQCACSSREPYFGYSGAFKCLQDGAGDVAFVKETTVFENLPEKADRDQYELLCLNNSRAPVDAFKECHLAQVPSHAVVARSVDGKEDLIWKLLSKAQEKFGKNKSRSFQLFGSPPGQRDLLFKDSALGFLRIPSKVDSALYLGSRYLTTLKNLRETAEEVKARYTRVVWCAVGPEEQKKCQQWSQQSGQNVTCATASTTDDCIVLVLKGEADALNLDGGYIYTAGKCGLVPVLAENRKSSKHSSLDCVLRPTEGYLAVAVVKKANEGLTWNSLKDKKSCHTAVDRTAGWNIPMGLIVNQTGSCAFDEFFSQSCAPGADPKSRLCALCAGDDQGLDKCVPNSKEKYYGYTGAFRCLAEDVGDVAFVKNDTVWENTNGESTADWAKNLNREDFRLLCLDGTRKPVTEAQSCHLAVAPNHAVVSRSDRAAHVKQVLLHQQALFGKNGKNCPDKFCLFKSETKNLLFNDNTECLAKLGGRPTYEEYLGTEYVTAIANLKKCSTSPLLEACAFLTR",change of cytotoxic activity compared with the negative sample group,Addition of antibody drug + complement,did not increase
same,Cytotoxic activity (%),"Addition of antibody drug + complement (rituximab, human serum AB)",24.3%
same,Cytotoxic activity (%),Addition of antibody drug only,1.0%
same,Cytotoxic activity (%),Addition of complement only,1.2%
same,Cytotoxic activity (%),"No addition (no antibody drug, no complement)",1.0%
